Data from the DeepSol protein solubility set.

Experiment: soluble on expression in E. coli; label from the status in PepcDB or PDB records

Sequence | soluble on expression in E. coli
MDPLRAQQLAAELEVEMMADMYNRMTSACHRKCVPPHYKEAELSKGESVCLDRCVSKYLDIHERMGKKLTELSMQDEELMKRVQQSSGPA | soluble
MDQTIHHQIQQALHFRTAVRVYKEEKISDEDLALILDAAWLSPSSIGLEGWRFVVLDNKPIKEEIKPFAWGAQYQLETASHFILLIAEKHARYDSPAIKNSLLRRGIKEGDGLNSRLKLYESFQKEDMDMADNPRALFDWTAKQTYIALGNMMMTAALLGIDTCPIEGFHYDKVNHILAKHNVIDLEKEGIASMLSLGYRLRDPKHAQVRKPKEEVISVVK | soluble
MDRFDAMQAFARVVDTGSFTKAAETLHMSRTSVTQLVQQLEARLRVRLLNRTTRKLNLTADGAAYYERVVRLLAELDDAETSLSSAALAPRGRLRIDVPSPLARLLLIPALPEFHARYPEIQIDLGVSDRLVDLIDENVDCVIRGGELRDQSLMARRVGDLQLGVYAAPAYLQRAGVPSHPRELEDSHQRIVGFLWARTGKALPYAMRRGEECLRVAGRHVLAVDDGNAYLAAGLAGLGILWLPHYMAREPLARGELLPLFEDWSLEPMPLYLAFPPNRHVSGKLRVFIEWVAELIARHAPPLHPPL | not soluble
MDRISQLSDDLLLQILSFIPGKDVVATSLLSKRWQSLWMLVSELEYDDSYHTGDYKSFSQFVYRSLLSNNAPVIKHLHLNLGPDCPAIDIGLWIGFALTRRLRQLKINIRTSSNDASFSLPSSLYTSDTLETLRLINFVLLDVPSSVCLPSLKVLHLKTVDYEDDASLPSLLFGCPNLEELFVERHDQDLEMDVTFVVPSLRRLSMIDKNYGQCDRYVIDVPSLKYLNITDDAVYDVRQIENMPELVEAHVDITQGVTHKFLRALTSVRQLSLCLSLSEKQHESGLCGIETPIGWKLPSSVPECLLFSLEAFEWIGYKGRRGDREVATYVLKNAACLRTAKFSPESTDVGEKYHMLKELASVPTASTSSKLLFD | soluble
MDRMYEQNQMPHNNEAEQSVLGSIIIDPELINTTQEVLLPESFYRGAHQHIFRAMMHLNEDNKEIDVVTLMDQLSTEGTLNEAGGPQYLAELSTNVPTTRNVQYYTDIVSKHALKRRLIQTADSIANDGYNDELELDAILSDAERRILELSSSRESDGFKDIRDVLGQVYETAEELDQNSGQTPGIPTGYRDLDQMTAGFNRNDLIILAARPSVGKTAFALNIAQKVATHEDMYTVGIFSLEMGADQLATRMICSSGNVDSNRLRTGTMTEEDWSRFTIAVGKLSRTKIFIDDTPGIRINDLRSKCRRLKQEHGLDMIVIDYLQLIQGSGSRASDNRQQEVSEISRTLKALARELECPVIALSQLSRGVEQRQDKRPMMSDIRESGSIEQDADIVAFLYRDDYYNRGGDEDDDDDGGFEPQTNDENGEIEIIIAKQRNGPTGTVKLHFMKQYNKFTDIDYAHADMM | not soluble
MDRPVRVLFVCLGNICRSPMAEGIFRKLLKERGLEDRFEVDSAGTGAWHVGEPMDPRARRVLEEEGAYFPHVARRLTREDVLAYDHILVMDRENLEEVLRRFPEARGKVRLVLEELGGGEVQDPYYGDLEDFRKVYWTLEAALQAFLDRHGSPSPAAEGRA | soluble
MDSADPQLNRFLQQLQAETQRQKFTEQVHTLTGRCWDVCFADYRPPSKMDGKTQTCIQNCVNRMIDASNFMVEHLSKMNGGHV | not soluble
MDTAGDTKTTDDGGVVNITYMHRLPDSEGMTLVNDIVAKWNKQHPDIQVKATKFDGKASDMIKKLETDVKSGEAPDLAQVGYAELPEVFTKGLLQDVTQYAEQYKNDFASGPYSLVQVGGKAYGLPQDTGPLVYFYNKAEFEKLGITEIPQTADEFIAAAKTAAAAGKYIMSYQPDEAGNMISGLAGASGGWYKVKGDSWVVNTETDGSKATADFYQQLLDAKAATTNPRWDPSFDASIKDGSLIGTVAAAWEAPLFMTSSGGTGSGEWQVAQLGDWFGNAGKTGPDGGSAVAVLKNSKHPKEAMEFLDWFNTQVPDLVSQGLVPAATTEDAETPSEWSTFFGGQDIMKEFKTANNNMGDFTYMPGFSAVAAKMNETAAKATDGSGKVADIFSDAQTTSVDTLKNFGLSVSE | soluble
